Consider 167 variants from the RNAGym collection of RNA variant scans (doi:10.7554/elife.80360).

B1: CPEB3 Ribozyme (parent)
chain: GGGGGCCACAGCAGAAGCGUUCACGUCGCGGCCCCUGUCAGAUUCUGGUGAAUCUGCGAAUUCUGCUGU

This data set covers variants of B1. The data set can be described thus: self-cleavage, relative activity (ratio to wild type); higher = more cleavage; co-transcriptional.
In the case of A16U G68A, the self-cleavage is 0.953.

Turning to G17A G47U, the self-cleavage is 0.562.

Regarding A16C C34A, the self-cleavage was found to be 0.165.

As for A16U U20G, the self-cleavage stood at 0.108.

Consider G17A C24U, for which the self-cleavage was found to be 0.142.

On to G17A C18U, for which the self-cleavage worked out at 0.122.

For A16U A42U, the self-cleavage was 0.82.

For the variant A16G G37A, the self-cleavage was determined as 0.13.

Consider A16C G28U, for which the self-cleavage came out at 0.113.

As for A16U U43C, the self-cleavage is 0.86.

Turning to A16U C63U, the self-cleavage was 0.732.

Take A16U C63A: the self-cleavage turned out to be 0.501.

For the variant A16G C33A, the self-cleavage is 0.795.

Regarding G17U C34A, the self-cleavage is 0.195.

In the case of A16C G25C, the self-cleavage came to 0.0921.

With A16G C32G, the self-cleavage is 0.125.

A16G C32A: the self-cleavage was 0.607.

Regarding A16G C29G, the self-cleavage was 0.309.

G17C U62C: the self-cleavage was 0.194.

G17C U67A: the self-cleavage amounted to 0.204.

A16G G19U: the self-cleavage was found to be 0.184.

Take A16G G19C: the self-cleavage worked out at 0.158.

As to A16G G19A, the self-cleavage is 0.163.

For the variant A16G G65A, the self-cleavage stood at 0.622.

Regarding A16G G65U, the self-cleavage was found to be 0.571.

For A16G U38G, the self-cleavage is 0.143.

Turning to C18A A59U, the self-cleavage turned out to be 0.123.

As for C18A A59G, the self-cleavage was 0.145.

G17U U44G: the self-cleavage was found to be 0.31.

Regarding G17U U64A, the self-cleavage was 0.201.

Regarding G17U U64G, the self-cleavage worked out at 0.183.

With A16G U67A, the self-cleavage was 0.907.

Regarding A16C U21C, the self-cleavage came out at 0.174.

In the case of A16G G28A, the self-cleavage turned out to be 0.215.

As to A16G G28U, the self-cleavage was determined as 0.188.

Turning to G17C C27U, the self-cleavage was 0.16.

As to C18A A40C, the self-cleavage stood at 0.197.

Consider G17U A23U, for which the self-cleavage is 0.714.

Consider G17C C57G, for which the self-cleavage was 0.0859.

Consider G17C U21A, for which the self-cleavage is 0.116.

G17A U20G: the self-cleavage was found to be 0.098.

For G17A U20A, the self-cleavage amounted to 0.0639.

As to G17C C63A, the self-cleavage came out at 0.162.

Take A16U U55C: the self-cleavage is 0.539.

Take A16U U55A: the self-cleavage stood at 0.624.

For G17A U55C, the self-cleavage turned out to be 0.141.

For G17A U55A, the self-cleavage was determined as 0.195.

For A16U C22U, the self-cleavage stood at 0.168.

With A16U C22G, the self-cleavage turned out to be 0.161.

A16U G58U: the self-cleavage turned out to be 0.814.

As to A16U G19C, the self-cleavage was determined as 0.112.

In the case of A16G C54G, the self-cleavage was found to be 0.581.

Regarding A16G C54A, the self-cleavage stood at 0.413.

On to G17A U67C, for which the self-cleavage was found to be 0.491.

Take G17U C54A: the self-cleavage worked out at 0.188.

Consider G17U C54U, for which the self-cleavage is 0.461.

For A16C G68U, the self-cleavage worked out at 0.408.

In the case of A16G U53A, the self-cleavage was 0.752.

As to A16G U53G, the self-cleavage is 0.784.

Take G17A U62A: the self-cleavage was found to be 0.193.

For the variant G17A A42G, the self-cleavage was determined as 0.286.

For A16C G65C, the self-cleavage stood at 0.174.

Take A16C U67C: the self-cleavage was determined as 0.289.

As for A16C G30A, the self-cleavage is 0.188.

On to A16C G30U, for which the self-cleavage was 0.131.

As for A16G C63U, the self-cleavage came out at 0.861.

In the case of G17A C22U, the self-cleavage is 0.148.

In the case of A16U G37C, the self-cleavage turned out to be 0.0966.

Regarding G17U A40G, the self-cleavage turned out to be 0.352.

G17U A40C: the self-cleavage came to 0.147.

For A16G G50A, the self-cleavage amounted to 0.915.

Regarding A16G G50C, the self-cleavage was found to be 0.896.

As to G17U U36C, the self-cleavage was 0.252.

As for G17U C39U, the self-cleavage was 0.278.

Consider A16U U36G, for which the self-cleavage came to 0.111.

Regarding G17C A59C, the self-cleavage is 0.104.

As to G17C A59G, the self-cleavage was 0.122.

As for A16G C27U, the self-cleavage was 0.228.

A16G C27A: the self-cleavage worked out at 0.481.

For the variant A16G C27G, the self-cleavage was 0.102.

Take G17U G30A: the self-cleavage came out at 0.184.

With G17U U55C, the self-cleavage amounted to 0.227.

In the case of A16U C29U, the self-cleavage was found to be 0.117.

As to G17U U67A, the self-cleavage was 0.513.

G17U U67G: the self-cleavage was determined as 0.627.

A16G A52C: the self-cleavage is 0.927.

For the variant C18A A23U, the self-cleavage was found to be 0.179.

For C18A A23C, the self-cleavage stood at 0.128.

Turning to G17A U46G, the self-cleavage turned out to be 0.591.

On to G17A U46A, for which the self-cleavage came to 0.634.

As for C18A C34U, the self-cleavage amounted to 0.16.

C18A C34G: the self-cleavage was 0.14.

For the variant G17U C27U, the self-cleavage amounted to 0.105.

Regarding G17U C57G, the self-cleavage was 0.16.

Regarding G17U C57A, the self-cleavage came to 0.192.

As to A16C C39G, the self-cleavage stood at 0.151.

With A16C C39U, the self-cleavage came to 0.184.

G17A C27A: the self-cleavage was 0.126.

On to G17A C27G, for which the self-cleavage turned out to be 0.134.

As for G17A C27U, the self-cleavage was 0.172.

As for G17A G28C, the self-cleavage amounted to 0.0891.

G17C U55A: the self-cleavage was found to be 0.177.

A16U A51C: the self-cleavage stood at 0.71.

For G17C C39U, the self-cleavage is 0.117.

On to G17U G25U, for which the self-cleavage came to 0.121.

A16C G50U: the self-cleavage was found to be 0.306.

A16C G50A: the self-cleavage was determined as 0.23.

Consider G17U A59C, for which the self-cleavage amounted to 0.179.

As to G17C C54U, the self-cleavage turned out to be 0.145.

Consider G17U U69A, for which the self-cleavage was found to be 0.675.

For G17U U69G, the self-cleavage came out at 0.768.

As for A16U G50A, the self-cleavage turned out to be 0.884.

Take A16U G50C: the self-cleavage was 0.762.

Turning to A16G U21A, the self-cleavage was found to be 0.92.

Take A16U C54G: the self-cleavage was 0.662.

With A16U C54A, the self-cleavage worked out at 0.637.

As to A16U C54U, the self-cleavage is 0.895.

With G17C C35U, the self-cleavage was 0.15.

In the case of G17C C35G, the self-cleavage amounted to 0.153.

On to A16C U53A, for which the self-cleavage turned out to be 0.16.

Turning to A16C U62A, the self-cleavage was 0.152.

Consider A16C U62C, for which the self-cleavage amounted to 0.222.

As for A16C U62G, the self-cleavage stood at 0.148.

Consider A16C U44G, for which the self-cleavage was 0.307.

A16C U44A: the self-cleavage stood at 0.0709.

With C18A C24G, the self-cleavage was found to be 0.186.

With C18A A51C, the self-cleavage was determined as 0.164.

Take A16G G68A: the self-cleavage was determined as 1.02.

For the variant A16C C32A, the self-cleavage came to 0.0786.

Consider A16G C35G, for which the self-cleavage came out at 0.373.

As to A16G C35A, the self-cleavage turned out to be 0.179.

Turning to A16G A42G, the self-cleavage amounted to 0.855.

As to A16G A42U, the self-cleavage came to 0.83.

On to A16G U44C, for which the self-cleavage is 0.734.

As for A16G U44G, the self-cleavage is 0.84.

As to A16C C33U, the self-cleavage was 0.261.

For the variant A16U G30U, the self-cleavage is 0.261.

Consider A16U U26G, for which the self-cleavage turned out to be 0.461.

For A16G U64C, the self-cleavage turned out to be 0.513.

With A16U U69G, the self-cleavage is 0.972.

For the variant G17A C32A, the self-cleavage amounted to 0.164.

Take G17C A52C: the self-cleavage came to 0.126.

For the variant G17C U69C, the self-cleavage is 0.284.

As for G17C U38A, the self-cleavage came out at 0.155.

For the variant G17C U44C, the self-cleavage is 0.141.

For G17C U44G, the self-cleavage was determined as 0.137.

Regarding G17C U44A, the self-cleavage came out at 0.24.

Regarding G17A U26A, the self-cleavage was found to be 0.349.

As for A16C G47U, the self-cleavage is 0.427.

For the variant G17U U43G, the self-cleavage amounted to 0.163.

Regarding G17U U43A, the self-cleavage worked out at 0.218.

In the case of G17A A60C, the self-cleavage worked out at 0.189.

On to G17A A60G, for which the self-cleavage was 0.202.

For A16U U21C, the self-cleavage is 0.322.

On to A16U U21G, for which the self-cleavage worked out at 0.294.

As for G17C U20C, the self-cleavage amounted to 0.157.

Regarding G17A U61C, the self-cleavage turned out to be 0.264.

For G17A U61A, the self-cleavage worked out at 0.231.

For the variant G17A U43C, the self-cleavage was 0.336.

With G17A U43A, the self-cleavage stood at 0.253.

In the case of G17A U43G, the self-cleavage was determined as 0.177.

As for G17C G31A, the self-cleavage is 0.111.

Regarding G17U G68U, the self-cleavage was determined as 0.768.

In the case of G17U G68C, the self-cleavage is 0.818.

On to A16G U55A, for which the self-cleavage was found to be 0.659.

Take A16G U55G: the self-cleavage was 0.67.

Regarding G17U G58A, the self-cleavage is 0.343.
